Target: the molecule itself
Test: dynamic light scattering; 20 µl of freshly purified protein (8 mg/ml) at 20 °C, DynaPro NanoStar; self-association (oligomeric state)

B1: Tde1415 (Tde-PntC; two-domain protein with an N-terminal PntC and a C-terminal AEPT domain) from Treponema denticola (enzyme, Treponema denticola ATCC 35405)
chain: MIKQAVILAGGLGSRLKDKTKTMPKGFLEIGGTAIVEQSVQKLLAHGIEKIVIGTGHCNEYYDNLAKKYPAIITVKNENYANTGSMGTLEVCASFVNESFLLLESDLIYDSAGLFSLINDERKNLILASGATKSGDEVYLEADEKNCLTGLSKNRDALKNIFGELVGITKLTKSTLDKMCAYAKIHHSDLPKMEYEHALLEAAKTIPVAIKRIEYFVWREIDNEDHLEMAVKNIYPHIVENEKLRAVRREVLLNPGPATTTDSVKYAQVSADICPREKAFGDLMQWLCDELKLFALASETNPDEYETVMFGCSGTGADEVMVSSCVPDTGRLLVIDNGSYGARMAKIADIYKIPMDIFKSSTYEPLDLQKLEAEFATKKYTHLACVYHETTTGLLNPLHIICPMAKKYGMVTIVDAVSAYCGMPMDLKSLGIDFMASTSNKNIQGMAGVGFVICNKAELEKTKDYPMRNYYLNLYDQYAYFAKTHQTRFTPPVQTMYALRQAVLETKQETVQKRYERYTACWNILVAAIKKLGLKMLVKEEHQSHFITAILEPETPKYSFEALHDFAAEHSFTIYPGKLGNIDTFRIANIGDIQPEEMRRFTVKLKEYMNGIGVGV
notes: Tde1415 (Tde-PntC) from T. denticola ATCC 35405, NCBI NP_992021; N-terminal PntC cytidylyltransferase domain joined to a C-terminal AEP transaminase (AEPT) domain; predicted monomeric molecular weight ~70 kDa; gene subcloned without its stop codon as NdeI/NotI fragment into pET21b (pGH3000); Dimer by DLS; source: E. coli BL21(DE3), purified (Ni-NTA, HiTrap Q FF anion exchange)
stoichiometry N: 2

— publication PMC6697681, “The predominance of nucleotidyl activation in bacterial phosphonate biosynthesis” (Nature Communications, 2019)
